Source: PMC9463536 (The Journal of Biological Chemistry, 2022)

Biological target: T1, human claudin-4, biotinylated with NHS-PEG4-biotin (human, UniProt O14493 1-209)
T1 construct: also called biotinylated claudin-4
T1 sequence: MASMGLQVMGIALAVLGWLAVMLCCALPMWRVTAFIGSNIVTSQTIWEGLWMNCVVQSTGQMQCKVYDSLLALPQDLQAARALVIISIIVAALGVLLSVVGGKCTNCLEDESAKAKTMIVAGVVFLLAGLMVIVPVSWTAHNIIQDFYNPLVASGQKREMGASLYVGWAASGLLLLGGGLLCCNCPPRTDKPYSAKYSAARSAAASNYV
Test: BLI
Settings: both partners purified

B1: cCpE^1 (cCpE^[change]) (domain or fragment)
chain: KEILDLAAATERLNLTDALNSNPAGNLYDWRSSNSYPWTQKLNLHLTITATGQKYRILASKIVDFNIYSNNFNNLVKLEQSLGDGVKDHYVDISLDAGQYVLVMKANSSYSGNYPYSILFQKF
Kd: ~3 nM
